T1: CD22 Protein (His Tag), Sino Biological Cat. No. 11958-H08H (UniProt P20273 20-687)
T1 construct: soluble analyte, 50 nM in BLI; also called Sino Biological antigen
T1 sequence (looked up): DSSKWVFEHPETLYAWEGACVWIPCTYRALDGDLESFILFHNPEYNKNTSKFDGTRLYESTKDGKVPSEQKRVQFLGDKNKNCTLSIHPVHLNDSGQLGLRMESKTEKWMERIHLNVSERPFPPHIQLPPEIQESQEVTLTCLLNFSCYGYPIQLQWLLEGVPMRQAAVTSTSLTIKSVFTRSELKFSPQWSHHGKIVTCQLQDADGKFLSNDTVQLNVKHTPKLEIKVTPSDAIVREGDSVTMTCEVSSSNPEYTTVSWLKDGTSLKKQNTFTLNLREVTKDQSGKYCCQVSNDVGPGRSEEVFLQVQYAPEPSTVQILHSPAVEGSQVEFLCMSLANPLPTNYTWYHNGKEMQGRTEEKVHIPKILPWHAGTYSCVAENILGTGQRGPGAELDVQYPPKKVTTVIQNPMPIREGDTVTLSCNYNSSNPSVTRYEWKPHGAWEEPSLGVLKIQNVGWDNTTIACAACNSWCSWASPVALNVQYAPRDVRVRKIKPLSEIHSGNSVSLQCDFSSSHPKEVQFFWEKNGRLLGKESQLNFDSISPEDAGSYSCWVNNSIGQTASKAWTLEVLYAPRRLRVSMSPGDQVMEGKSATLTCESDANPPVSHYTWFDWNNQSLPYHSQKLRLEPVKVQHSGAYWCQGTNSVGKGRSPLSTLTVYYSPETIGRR

B1: MYT1529 (antibody, V domains shown)
VH: QVQLVQSGAEVKKPGSSVKVSCKASGYTFTSYWLHWVRQAPGQGLEWIGYINPRNDYTEYNQNFKDKATITADESTNTAYMELSSLRSEDTAFYFCARRDITHFYWGQGTTVTVSS
VL: DIQLTQSPSSLSASVGDRVTMSCKSSQSVLYSANHKNYLAWYQQKPGKAPKLLIYWASTRESGVPSRFSGSGSGTDFTFTISSLQPEDIATYYCHQYLSSWTFGGGTKVQIK
notes: ADCT-602 VH T103H; tie by order
B2: MYT4624 (antibody, V domains shown)
VH: QVQLVQSGSELKKPGASVKVSCKASGYTFTSYHMNWVRQAPGQGLEWMGWINTNTGNPTYAQGFTGRFVFSLDTSVSTAYLQISSLKAEDTAVYYCARLFYYYFGMDVWGQGTTVTVSS
VL: QSALTQPASVSGSPGQSITISCTGTSSDVGSYNLVSWYQLHPGKAPKLMIYEVSKRPSGVSNRFSGSRSGNTASLTISGLQAEDEADYYCCSYANSSTLVFGGGTKLTVL
notes: 12C5 VH A33H; tie by order
B3: MYT4649 (antibody, V domains shown)
VH: QVQLVQSGSELKKPGASVKVSCKASGYTFTSYAMNWVRQAPGQGLEWMGWINTNTGNPTYAQGFTGRFVFSLDTSVSTAYLQISSLKAEDTAVYYCARLFYYYHGMDVWGQGTTVTVSS
VL: QSALTQPASVSGSPGQSITISCTGTSSDVGSYNLVSWYQLHPGKAPKLMIYEVSKRPSGVSNRFSGSRSGNTASLTISGLQAEDEADYYCCSYANSSTLVFGGGTKLTVL
notes: 12C5 VH F104H; tie by order
B4: MYT4651 (antibody, V domains shown)
VH: QVQLVQSGSELKKPGASVKVSCKASGYTFTSYAMNWVRQAPGQGLEWMGWINTNTGNPTYAQGFTGRFVFSLDTSVSTAYLQISSLKAEDTAVYYCARLFYYYFGHDVWGQGTTVTVSS
VL: QSALTQPASVSGSPGQSITISCTGTSSDVGSYNLVSWYQLHPGKAPKLMIYEVSKRPSGVSNRFSGSRSGNTASLTISGLQAEDEADYYCCSYANSSTLVFGGGTKLTVL
notes: 12C5 VH M106H; tie by order
B5: MYT4650 (antibody, V domains shown)
VH: QVQLVQSGSELKKPGASVKVSCKASGYTFTSYAMNWVRQAPGQGLEWMGWINTNTGNPTYAQGFTGRFVFSLDTSVSTAYLQISSLKAEDTAVYYCARLFYYYFHMDVWGQGTTVTVSS
VL: QSALTQPASVSGSPGQSITISCTGTSSDVGSYNLVSWYQLHPGKAPKLMIYEVSKRPSGVSNRFSGSRSGNTASLTISGLQAEDEADYYCCSYANSSTLVFGGGTKLTVL
notes: 12C5 VH G105H; tie by order
B6: MYT4626 (antibody, V domains shown)
VH: QVQLVQSGSELKKPGASVKVSCKASGYTFTSYAMHWVRQAPGQGLEWMGWINTNTGNPTYAQGFTGRFVFSLDTSVSTAYLQISSLKAEDTAVYYCARLFYYYFGMDVWGQGTTVTVSS
VL: QSALTQPASVSGSPGQSITISCTGTSSDVGSYNLVSWYQLHPGKAPKLMIYEVSKRPSGVSNRFSGSRSGNTASLTISGLQAEDEADYYCCSYANSSTLVFGGGTKLTVL
notes: 12C5 VH N35H; tie by order
B7: MYT4715 (antibody, V domains shown)
VH: QVQLQQWGAGLLKPSETLSLTCAVYGRSFSSYYWSWIRQPPGKGLEWIGDIQHSGSTNYNPSLKSRVTISVDTSKNQFSLKLSSVTAADTAVYYCHGTFYDILTGYYPLGYWGPGTLVTVSS
VL: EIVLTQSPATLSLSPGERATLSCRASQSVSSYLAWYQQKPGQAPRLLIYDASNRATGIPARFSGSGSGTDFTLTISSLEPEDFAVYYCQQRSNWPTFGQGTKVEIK
notes: 19A3 VH A96H; tie by order
B8: MYT4720 (antibody, V domains shown)
VH: QVQLQQWGAGLLKPSETLSLTCAVYGRSFSSYYWSWIRQPPGKGLEWIGDIQHSGSTNYNPSLKSRVTISVDTSKNQFSLKLSSVTAADTAVYYCAGTFYHILTGYYPLGYWGPGTLVTVSS
VL: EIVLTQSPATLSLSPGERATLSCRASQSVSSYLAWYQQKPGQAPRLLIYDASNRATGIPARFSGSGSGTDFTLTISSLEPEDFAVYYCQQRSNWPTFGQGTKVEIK
notes: 19A3 VH D101H; tie by order
B9: MYT4718 (antibody, V domains shown)
VH: QVQLQQWGAGLLKPSETLSLTCAVYGRSFSSYYWSWIRQPPGKGLEWIGDIQHSGSTNYNPSLKSRVTISVDTSKNQFSLKLSSVTAADTAVYYCAGTHYDILTGYYPLGYWGPGTLVTVSS
VL: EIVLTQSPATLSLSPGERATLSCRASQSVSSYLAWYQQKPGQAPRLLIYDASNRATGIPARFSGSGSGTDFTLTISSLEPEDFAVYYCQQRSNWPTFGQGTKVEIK
notes: 19A3 VH F99H; tie by order

We go through 9 molecules from US20220288219A1 (MYTHIC THERAPEUTICS, published 2022).

This test addresses T1, CD22 Protein (His Tag), Sino Biological …. In words: BLI, IgG on anti-human Fc sensor.
As for B1, the binding result was “no binding (tested: 50 nM)”.
Turning to B2, the binding result was “no binding (tested: 50 nM)”.
In the case of B3 it was “no binding (tested: 50 nM)”.
In the case of B4, the binding result is reported as “no binding (tested: 50 nM)”.
Next, B5: “no binding (tested: 50 nM)”; B6: “no binding (tested: 50 nM)”; B7: “no binding (tested: 50 nM)”.
Next, B8: “no binding (tested: 50 nM)”.
In the case of B9 it was “no binding (tested: 50 nM)”.
